# Test results as given in the DeepSol protein solubility set.
# Assay: soluble on expression in E. coli; label from the status in PepcDB or PDB records
row,Sequence,soluble on expression in E. coli
1,MAHHHHHHMKLFCVGHRKVPIRVSPFDHPICVGCSSTLSFSSVLRKREYWNDMSTTNPLDVVLNMRLAVKELTNSAAASDKASEREKIKAKKALNKDNIEAARVYAENAIRKKDEGTSYLRLASRVDAAAERIQSAMQMHAMTRSLEKAICGISKVLHSLDPVQITTAMDAFERHVDTVAVNANAMDGTFERSRASAVPAAEVESFLEQITPDNEIDISEQIAVATNYLKKRPAATEVGDDVGITERMQRISIGAR,not soluble
2,MSTRWYPIYQRGNPQLRVFLPNFWMKLIRPTEEQPPNVVTFSVSMEMTKYDVRNYLEKIYKLPVVDVRTRIAMGETKKDQTYGYITKKDDVKLAYVTLPREESFVFPDFFSEKAEKQAKEEKSLDESKAGFRRFLDRNKKRPGTPGWFSI,not soluble
3,MSLRVIDTHCDALYKLQAGKGKYTFQDAEELDVNFERLIEAKMLLQGFAIFLDEDIPVEHKWKKAVEQVNIFKQHVLHKGGIIHHVKKWCDLENLPEDKIGAMLTLEGIEPIGRDLDKLTQLLDGGVLSVGLTWNNANLAADGIMEERGAGLTRFGKDIIHLLNERKVFTDVSHLSVKAFWETLEQAEFVIASHSSAKAICAHPRNLDDEQIKAMIEHDAMIHVIFHPLFTTNDGVADIEDVIRHIDHICELGGMKNIGFGSDFDGIPDHVKGLEHAGKYQNFLETLGKHYTKEEVEGFASRNFLNHLPKEGHHHHHH,soluble
4,MGSDKIHHHHHHMTISRNYDQEIKDTAGHKYAYNFDFDVMHPFMVRAFTPFFRPGNLLELGSFKGDFTSRLQEHFNDITCVEASEEAISHAQGRLKDGITYIHSRFEDAQLPRRYDNIVLTHVLEHIDDPVALLKRINDDWLAEGGRLFLVCPNANAVSRQIAVKMGIISHNSAVTEAEFAHGHRCTYALDTLERDASRAGLQVTYRSGIFFKALANFQWDQILQTDILSKEYLDGCYQLGQQYPDLCASIFLLCEKGINQ,not soluble
5,MSGNSGASPQDMVKKLVYLSCTLNQKCGQRTGPHREPEPFLGFSVRDRSGLEGAIASVFQSSFDVLLYPTIYDQAAALLFKLANGHYFQDGNKRTAFHLCLAYLRANNVHVSPPRSDDVITLLQTTVSRSGSQENGIAFVRQKLLDWTVD,not soluble
6,MSTLSQLKPASLWQLFEKICSIPHPSKHEQKISLWIQDWAKELGLAIKEDAVGNLFIKKPATAGMEDRKGIILQAHMDMVPQKNNDTDHDFITDPIKPYVIDSGDWVTAEGTTLGADNGVGLASALAILASDDIPHGPLEVLVTIDEEAGMTGAFGLEAGWLDGDILINTDSEQEGEVYMGCAGGIDGNATFALTLEDVPSNYQAFNLSISGLKGGHSGVDIHTGRANANKLLVRFLLSASIDFDISLTELNGGSLRNAIPREANASFVVAKDKVEALKVALADYLSTISANLGAIETDIDMLLISPEDFEQCWTKATQASILRALNACPNGVIRMSDDIEGIVETSLNLGVIHTRGSKLNAMVLIRSLHDDGRLETQRMVQSVFELAGANVVFSGAYPGWKPNTDSAIMQTVRDTYESIFNKVPAVMVIHAGLECGLFKTAYPHWDMVSIGPTIKFPHSPDEKIEIATVEQYWQLLVAVLANIPKKLEHHHHHH,soluble
7,MDSEQINVNLDIGAKAVMLARRAAAAKLNNEKLPEVPDDPIFHEKHGVFTTINTYPDNQLRGCIGFPEPYYELGEGIIKSSIYAATDDPRFDPMEPDELNRVTFELSILTVPQEVTVNPEERPKAITVGKDGIIAVYNGASGLLLPQVATEYRMSAEEFLEALCEKAGLWQGCWKYKKVKISKFQAIVFGEIEPNGKVEQRAAALEHHHHHH,soluble
8,MEQSFTADINEINITNGKLDFSDSSLTPKFSAGIYSLNGDITGLSSNEDSRAKIDLKGKVDKYAPVIIKGSVNPLSHDAFTDIDMLFNGIELTTFTPYSGKFAGYAIDKGKLSLGLNYKLSNNKLVAENNVTLDQLTLGEVVNSEEATSLPIKFALSLLKDSDGLEHHHHHH,soluble
9,MSLSLLEVCADLCGQQTLSLFQSSPSVQQVSQTRDLQDIIGQQQGKRALEIAAAGNHNLLFLGPPGTGKTMLASRLCDLLPEMSDEEAMETASIASLTQQEINQHNWKLRPFRAPHHSSSMAALVGGGTIPRPGEISLAHNGLLFLDEMPEFERKVLDSLREPLESGEIVISRAQGKTRFPARFQLVGALNPSPTGYYEGSQARANPQSILRYLSRLSGPLLDRFDMSIEIPALPKGTLANGGDRGESTAAVRQRVWVARERMLARSGKVNALLQSREIEQYCPLLKADAEFLESALHRLGLSIRAYHRIIKVARTIADLQGEAQIARPHLAEALGYRAMDRLLKQLSAQNEGHHHHHH,not soluble
10,MSLIITDDHMHLYNHLKLKALEQFRDAGGTHVFLVNLLCHHYGIRPTSGKDFREVFERHLSLVEKANKIVKAYAVLGVHPAEITVIGDRIGHEKAAEMMKEALEIAGKYVEEGKAVALKSGRPHYPVSRHVWQLSNDVLRHAFEVAKDVGCAIQLHTESYTKEGMLEIAKMADEVGLKREKVVKHFSPPLIKEFEEIGIFPSVLAGNNNVLKAAEQGNRFTVETDYIDDRKRPGAVLGPKTVPRKVKELIELGYEDIAYKICVENVEKVYGVELEEEGHHHHHH,soluble
11,MPKLPLLLSFPLLFFASFAYADEDFVTCYSVLKFINANDGSRLHSHDVKYGSGSGQQSVTAVKNSDDINSHWQIFPALNAKCNRGDAIKCGDKIRLKHLTTGTFLHSHHFTAPLSKQHQEVSAFGSEAESDTGDDWTVICNGDEWLESEQFKLRHAVTGSYLSLSGQQFGRPIHGQREVVGTDSITGGSAWKVAEGIYIKHQQKDL,soluble
12,MGAVNKDVFATGAGQVDPAKVLSPGLVYDATTEDYLKFIQGTGMDLGMEGLGTTQARDMNVPSFALGNLAGKIEVTRTLTALTPGTYRASVNVPGVNVKVTPSVLTFGAPGEKKTFKVQFENNNAALGKFAMGSLNWQGANKTVTSPIAVRPQSVIALEHHHHHH,not soluble
13,MSLKPRVAVIGSGSIGLLLYAYLKLANWPALLVTNRPEQADHLNKEGLTFVAKSGEHQPISVTATPLSSFSAEEAEVGFITVKSFAVKALLPQLQRKKWDGLVFFQNGMTHLEILRQIPARAICCGIVEIGAKRESDVRVQHTGDGAIWIGDMVGDSKNFDPMWACLHNAGLKAQKVTNWQDKMERKLIANAAINPLTGLFRVKNGALIENQLFSLLLKELVKEACVTLGREREVDEHLAYTRAICDKTANNLSSMYMDLTHHRRTEIESITGYLIKEAAKKGIEIPNTSFVYHAVMGMDEEGRKVREGHHHHHH,soluble
14,MGSDKIHHHHHHLKVLMYSISLAYMIRNLPYASLRAFEAVVRLGSFSAAAGDLGVSQSAVSQHVKSLEEWLGQELLVRGARASKGTRYGTLLAREIDRGLGGISEVCTQIRAASHSDTTVVISCLPGFAFTWLFPRLLRFDLAHPDLSISIATDTGGRPFNPADADIGIRYGHGEFPNLRVDHLMGERLFPVCAPQVAERLTDVASLGQHTLLQDEILNFGSANPSWEYWAEACGVHLPSRARTRRFGQSNLVLQAAIEGLGVALGREPLVLDALTDGRLVRPFTQNVKSPLSYWLVRRKQADDSPKVQEFLKWIKKEAETQPDIPASLNKFA,not soluble
15,MVAEGFRLDLLLTIAQLVPSTYHYQVKQLDKPDKDKDLKAEIQAIYDEHKGNYGYRRIHLELRNRGFSVNHKKVQGLMKELGLTARIRRRKRYKSYKGDVGKKAPNLIERAFEGAKPFEKCYTDVTEFALPNCAEKLYLSPVLDGYNSEIIDFTLSRSPNLIQVKTMLEKVFPEETYPNTILHSDQGWQYQHEVYHRFLASKGIRPSMSRKGTSTDNSMMESFFGVLKTEMFYGFEKNFKSLDQLEQAITEYIFYYNNKRIKTKLKGLSPVQYRTKSFQ,not soluble
16,GPSLSGELHIFCSVTAAYSHLPPILDRFRAEHPSVEIKLTTGDAADAMEKVVTGEADLAIAGKPETLPGAVAFSMLENLAVVLIAPALPCPVRNQVSADKPDWSTVPFIMADQGPVRRRIELWFRRNKISNPMIYATVGGHEAMV,not soluble
17,MSLTAQIRLAEPADLNDDTLRARAVAAARGDQRFDVLITGGTLVDVVTGELRPADIGIVGALIASVHEPASRRDAAQVIDAGGAYVSPGLIDTHMHIESSMITPAAYAAAVVARGVTTIVWDPHEFGNVHGVDGVRWAAKAIENLPLRAILLAPSCVPSAPGLERGGADFDAAILADLLSWPEIGGIAEIMNMRGVIERDPRMSGIVQAGLAAEKLVCGHARGLKNADLNAFMAAGVSSDHELVSGEDLMAKLRAGLTIELRGSHDHLLPEFVAALNTLGHLPQTVTLCTDDVFPDDLLQGGGLDDVVRRLVRYGLKPEWALRAATLNAAQRLGRSDLGLIAAGRRADIVVFEDLNGFSARHVLASGRAVAEGGRMLVDIPTCDTTVLKGSMKLPLRMANDFLVKSQGAKVRLATIDRPRFTQWGETEADVKDGFVVPPEGATMISVTHRHGMAEPTTKTGFLTGWGRWNGAFATTVSHDSHNLTVFGGNAGDMALAANAVIGTGGGMAVASEGKVTAILPLPLSGLVSDAPLEEVARAFEDLREAVGKVVEWQPPYLVFKACFGATLACNIGPHQTDMGIADVLTGKVMESPVIEVLGEGHHHHHH,soluble
18,MNKNKPFIVVIVGPTASGKTELSIELAKRINGEIISGDSMQVYKHMNIGTAKVTPEEMDGIPHHLIDILNPDDTFSAYEFKRLAEDLITDITNRGKVPIIAGGTGLYIQSLIYNYELEDETVTPAQLSIVKQKLSALEHLDNQQLHDYLAQFDAVSAENIHPNNRQRVLRAIEYYLKTKKLLSNRKKVQQFTENYDTLLLGIEMSRKTLYSRINKRVDIMLDHGLFREVQQLVEQGYESCQSMQAIGYKELIPVINGQMIYEDAVNDLKQHSRQYAKRQMTWFKNKMSVHWLDKENMSLQMMLDEITTQIKMAGDPLEHHHHHH,not soluble
19,MAGGDDLKLLGAWPSPFVTRVKLALALKGLSYEDVEEDLYKKSELLLKSNPVHKKIPVLIHNGAPVCESMIILQYIDEVFASTGPSLLPADPYERAIARFWVAYVDDKLVAPWRQWLRGKTEEEKSEGKKQAFAAVGVLEGALRECSKGGGFFGGDGVGLVDVALGGVLSWMKVTEALSGDKIFDAAKTPLLAAWVERFIELDAAKAALPDVGRLLEFAKAREAAAAASK,soluble
20,MDKMLEKFEGSILGLSIGDALGMPTEWFTKEEIAEKYGLIDNFVDPKNKFNGILKAGQYTDDTDQTIAILNSFDVRGFNNDIFIKELIKWYNNNPVGMGPTSTKAIEKLIEGDTTGCDSRTCGSSMRVGPLGLFYFGEYDKLKEITIKATKLTHNNDEAIAGALSIAFFVAESVNNVKSEKSIKRCAKFIEDVSYDFSEKILLINDLNSADEAYELFDTGLPAIECVPSAIATFLRTDTFKDGMISCVNAGGDTDSMGSMYGAIAGAYYGVLNIPELWIAGLQNKDLLVDLSKKLYKLRFKKLEHHHHHH,soluble
21,MGSDKIHHHHHHMALVKLQPGDITSDDPIPFPIYSADGKLLLQEGQSVTTSSLLDRLYDLGYRKSTEKVRSGPFNPVSHAPQVNTELLISSAHAHEKALPKPEAISGRSMNVLPTLKHRVEFFRLTPAGGSEAIHVDLVGVVHEKTIIVRSTGPDESVVLDPEHSYQAKLFTGSHLSTFSTRLTPDGVGPFGCYYLEYPDNLIHATVRKHRRVTTSFPAKLQSGEYQRASVDVTVSNISLIGAGVSSSVDFLTVGQSARLSMNLSVAQRVRPVEVYVEVRNRREKDGGFFYGLEFVRVSDEVRLEIKDFVLDSLATL,not soluble
22,MLDDTGERIIPKNMKPMNGMLLEHLARYYFSTPYASGRVLDIACGTGYGSVMVAKTRKTEVDQVLGVDFDADVIHYAKQNYYHPKVSFLVGDAMDPYLRNQIGTFDTILSFETIEHVKDDRLFIERMRQLLKKDGTLVLSTPFGQGRGKPSDEPFHYHQLTEEEFRSLFDSFSEKEVFYQRGVTIEPKRTNVHYAFGVAVCKKLEHHHHHH,soluble
